Test results published in US20240400691A1 (FBD BIOLOGICS, published 2024).

B1: h1G4 (antibody, human IgG4 S228P, kappa, V domains shown)
VH: QVQLVESGGGLVKPGGSLRLSCAASGFTFSNYGMSWIRQAPGKGLEWVSTISGGGSNIYYADSVKGRFTISRDNAKNSLYLQMNSLRAEDTAVYYCVSYYYGIDFWGQGTSVTVSS
VL: DIQMTQSPSSLSASVGDRVTITCKASQDVTTAVAWYQQKPGKAPKLLIYWASTRHTGVPSRFSGSGSGTDFTLTISSLQPEDFATYYCQQHYTIPWTFGGGTKLEIKR
notes: also called negative control
B2: anti-PD-L1 VHH (2H4) (VHH)
VHH: QVQLVESGGGVVQPGRSLRLSCAASGGPFMSYAMGWFRQAPGKEREFVAAIRWNGISTFYADSVKGRFTISRDNSKNTLYLQMNSLRAEDTAVYYCAAAQTIVTVPENYHFDYWGQGTQVTVSS

Assays:
human CD47 [1] = biological target: T1, human CD47 (human, UniProt Q08722 19-323); test: flow cytometry on human platelets (CD47 on platelets per paragraph 5), PE goat anti-human IgG
T1 construct: whole, on cells; also called CD47 tf CHO-S; endogenous CD47 on FaDu and NCI-H460 cells
Method: (§1) The samples were analyzed using a CytoFLEX flow cytometer (Beckman Coulter Inc., CA, USA).

human PD-L1 [2] = biological target: T2, human PD-L1 (human, UniProt Q9NZQ7 19-290); test: flow cytometry on PD-L1 tf DLD1 cells in a 1:1 mixture with DLD1 cells, PE goat anti-human IgG [D]
T2 construct: whole, on cells; For the PD-L1 tf DLD1 cells the species of PD-L1 is not restated; also called PD-L1 tf CHO-S; PD-L1 tf DLD1
T2 sequence (Q9NZQ7 19-290): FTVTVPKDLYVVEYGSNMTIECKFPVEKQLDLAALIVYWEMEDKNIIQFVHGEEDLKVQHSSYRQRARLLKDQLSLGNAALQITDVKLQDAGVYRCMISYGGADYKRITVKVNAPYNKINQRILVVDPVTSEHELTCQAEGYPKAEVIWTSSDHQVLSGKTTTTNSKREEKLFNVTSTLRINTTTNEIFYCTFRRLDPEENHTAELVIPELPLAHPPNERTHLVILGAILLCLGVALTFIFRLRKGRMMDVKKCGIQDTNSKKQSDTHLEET
Method: The selective binding ability of HCB301_v5 proteins to PD-L1-expressing cells was determined as follows. DLD1 cells were labeled with CellTrace™ CFSE (Thermo, Cat #: C34554) and tf DLD1 cells expressing PD-L1 (PD-L1 tf DLD1) were labeled with Celltrace™ (Thermo, Cat #: C34557) according to the instructions provided by manufacturer. […] The samples were analyzed using a CytoFLEX flow cytometer (Beckman Coulter Inc., CA, USA). Afterwards, the cells were gated according to PE signals to calculate the percentages of different cell types by Kaluza analysis software (Beckman Coulter Inc.).

human PD-L1 [3] = biological target: T2, human PD-L1; test: flow cytometry competition on PD-L1 tf CHO-S cells against a fixed concentration of biotinylated PD1_G4, streptavidin-PE; IC50 from the table under the curves
human CD47 [4] = biological target: T1, human CD47; test: flow cytometry on CD47 tf CHO-S cells, PE goat anti-human IgG
Method: To determine the whole cell binding ability of the HCB301_v5 proteins to CD47 expressed on cell surface, tf CHO-S cells expressing human CD47 (CD47 tf CHO-S) were used as target cells. […] The samples were analyzed using a CytoFLEX flow cytometer (Beckman Coulter Inc., CA, USA).
The EC50 values were determined according to the binding curves.

human PD-L1 [5] = biological target: T2, human PD-L1; test: flow cytometry on PD-L1 tf CHO-S cells, PE goat anti-human IgG; EC50 from the table under the curves
Method: as §1
The EC50 values were also determined according to the binding curves.

| Binder | binding result (human CD47 [1]) | EC50 (read off the curve) (human PD-L1 [2]) [nM] | IC50 (human PD-L1 [3]) [nM] | binding result (human CD47 [4]) | EC50 (human PD-L1 [5]) [nM] |
| --- | --- | --- | --- | --- | --- |
| B1 | no binding (tested: 20 nM) |  |  |  |  |
| B2 |  | ~0.8 | 0.392 | no binding (tested: 500 nM) | 0.22 |
